Assay results: patent US20230295345A1 (published 2023)
Where two headings read alike, the source gives them in different places. One block for each binder: values may come before it.

Assays:
[1] = target: T1, cynomolgus monkey TMPRSS6 expressed on HEK293T cells (CynoTMPRSS6-(His)6); assay: cell surface ELISA
T1 chain: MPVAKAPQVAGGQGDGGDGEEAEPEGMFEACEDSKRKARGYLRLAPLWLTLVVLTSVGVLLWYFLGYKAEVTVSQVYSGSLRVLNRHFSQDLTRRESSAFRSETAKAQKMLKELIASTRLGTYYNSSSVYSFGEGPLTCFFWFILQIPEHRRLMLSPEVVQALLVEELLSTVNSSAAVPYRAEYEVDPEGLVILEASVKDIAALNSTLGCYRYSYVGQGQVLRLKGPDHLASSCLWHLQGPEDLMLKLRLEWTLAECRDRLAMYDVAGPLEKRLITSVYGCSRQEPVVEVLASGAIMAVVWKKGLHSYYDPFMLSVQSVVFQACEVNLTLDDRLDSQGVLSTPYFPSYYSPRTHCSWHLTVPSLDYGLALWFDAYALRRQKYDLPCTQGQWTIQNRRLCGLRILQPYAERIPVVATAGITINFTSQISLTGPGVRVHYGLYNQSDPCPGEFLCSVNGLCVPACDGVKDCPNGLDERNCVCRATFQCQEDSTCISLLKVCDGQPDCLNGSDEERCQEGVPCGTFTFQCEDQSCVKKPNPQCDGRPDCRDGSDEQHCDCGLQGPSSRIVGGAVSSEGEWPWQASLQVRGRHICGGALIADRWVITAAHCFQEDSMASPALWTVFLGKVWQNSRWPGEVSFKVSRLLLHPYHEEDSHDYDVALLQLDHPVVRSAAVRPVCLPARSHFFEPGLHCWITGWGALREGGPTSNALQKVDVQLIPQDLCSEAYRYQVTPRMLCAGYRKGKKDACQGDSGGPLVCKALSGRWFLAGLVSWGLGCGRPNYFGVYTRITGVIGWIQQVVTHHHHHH

[2] = target: T2, mouse TMPRSS6 expressed on HEK293T cells (MoTMPRSS6-(His)6) (UniProt Q9DBI0 1-811); assay: cell surface ELISA
T2 chain: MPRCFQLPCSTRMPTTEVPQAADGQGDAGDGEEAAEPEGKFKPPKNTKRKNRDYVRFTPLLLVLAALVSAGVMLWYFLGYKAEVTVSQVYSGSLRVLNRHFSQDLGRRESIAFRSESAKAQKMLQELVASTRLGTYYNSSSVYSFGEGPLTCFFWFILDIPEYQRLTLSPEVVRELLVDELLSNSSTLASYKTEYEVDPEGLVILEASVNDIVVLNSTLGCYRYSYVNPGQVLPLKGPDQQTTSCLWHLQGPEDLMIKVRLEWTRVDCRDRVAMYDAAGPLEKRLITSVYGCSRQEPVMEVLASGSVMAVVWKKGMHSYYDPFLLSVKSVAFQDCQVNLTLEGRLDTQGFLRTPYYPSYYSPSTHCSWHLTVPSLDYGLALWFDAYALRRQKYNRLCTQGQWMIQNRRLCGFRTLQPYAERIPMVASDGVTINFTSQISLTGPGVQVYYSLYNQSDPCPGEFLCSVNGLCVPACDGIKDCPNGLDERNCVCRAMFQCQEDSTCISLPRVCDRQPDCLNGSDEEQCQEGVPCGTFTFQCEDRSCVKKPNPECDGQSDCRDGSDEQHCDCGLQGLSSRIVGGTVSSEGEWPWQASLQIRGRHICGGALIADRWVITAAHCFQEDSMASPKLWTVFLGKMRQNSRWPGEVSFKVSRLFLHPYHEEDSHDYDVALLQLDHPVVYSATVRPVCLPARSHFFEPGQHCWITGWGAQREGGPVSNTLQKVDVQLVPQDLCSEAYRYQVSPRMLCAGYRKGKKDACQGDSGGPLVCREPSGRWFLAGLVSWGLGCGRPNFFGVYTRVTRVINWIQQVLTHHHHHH

[3] = target: T1, cynomolgus monkey TMPRSS6 expressed on …; assay: cell surface ELISA
[4] = target: T2, mouse TMPRSS6 expressed on HEK293T …; assay: cell surface ELISA
[5] = target: T3, human TMPRSS6 (matriptase-2) expressed on HEK293T cells (HuTMPRSS6-(His)6) (UniProt Q8IU80 10-811); assay: cell surface ELISA
T3 chain: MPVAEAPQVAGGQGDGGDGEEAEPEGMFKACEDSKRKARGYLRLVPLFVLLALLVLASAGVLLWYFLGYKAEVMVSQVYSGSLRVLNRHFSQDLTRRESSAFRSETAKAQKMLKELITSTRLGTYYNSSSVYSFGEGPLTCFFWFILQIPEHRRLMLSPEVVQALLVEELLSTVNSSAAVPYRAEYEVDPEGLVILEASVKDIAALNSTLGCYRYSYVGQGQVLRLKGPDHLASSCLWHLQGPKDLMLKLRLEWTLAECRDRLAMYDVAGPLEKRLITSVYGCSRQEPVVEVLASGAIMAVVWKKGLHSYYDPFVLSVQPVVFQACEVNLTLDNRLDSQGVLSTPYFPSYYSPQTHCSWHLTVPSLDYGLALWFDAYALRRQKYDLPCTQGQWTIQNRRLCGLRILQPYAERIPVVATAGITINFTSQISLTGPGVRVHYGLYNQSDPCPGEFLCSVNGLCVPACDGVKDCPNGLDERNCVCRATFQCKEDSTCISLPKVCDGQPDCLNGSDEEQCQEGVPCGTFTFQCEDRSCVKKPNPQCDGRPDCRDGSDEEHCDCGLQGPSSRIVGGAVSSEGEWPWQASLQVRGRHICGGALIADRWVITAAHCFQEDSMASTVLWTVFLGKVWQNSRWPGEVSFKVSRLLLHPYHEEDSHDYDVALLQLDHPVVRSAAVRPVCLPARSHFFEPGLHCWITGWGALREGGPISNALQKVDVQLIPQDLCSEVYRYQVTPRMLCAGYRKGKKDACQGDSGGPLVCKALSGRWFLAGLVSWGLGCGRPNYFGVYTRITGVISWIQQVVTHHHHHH

[6] = target: T3, human TMPRSS6 (matriptase-2) expressed …; assay: FACS

B1: hzMWTx-001Var anti-TMPRSS6 antibody (antibody, V domains shown)
VH: EVQLVQSGAEVKKPGASVKVSCKASGYTFTSYWITWVRQAPGQRLEWIGNIYPGSGSTYYNEKFKSKATITRDTSSRTAYMELSSLRSEDTAVYYCAPYDADYAMDYWGQGTLVTVSS
VL: DIQMTQSPSSLSASVGDRVTITCKASQDISNYLSWFQQKPGKAPKLLIYRANRLVEGVPSRFSGSGSGTDFTLTISSLQPEDFATYFCLQYDEFPLTFGGGTKVEIKR
EC50 [1]: 0.003 µg/mL | EC50 [2]: 0.03 µg/mL

B3: MWTx-003 anti-TMPRSS6 antibody (antibody, V domains shown)
VH: EVQLQQSGAELVKPGASVKLSCTASGFNIEDYYIHWVKERTEQGLEWIGRIDPEDGETTYAPQFQGKATIIPDTSSNTAYMQLSSLTSEDAAVYYCARSIYLDPMDYWGQGTSVTVSS
VL: DIVMTQSHKFMSTSVGDRVSITCKASQDVTTAVAWYQQKPGQSPKILIYWATTRHTGVPDRFTGSISGTTYILTISSVQAEDLALYYCQQHYSTPYTFGGGTKLEIKR
EC50 [3]: 0.09 µg/mL | EC50 [4]: 0.07 µg/mL | EC50 [5]: 0.05 µg/mL | EC50 [6]: 0.2 µg/mL

B4: MWTx-001 anti-TMPRSS6 antibody (antibody, V domains shown)
VH: QVQLQQPGAELAKPGASVKMSCKASGYTFTSYWITWVKQRPGQDLEWIGNIYPGSGSTYYNEKFKSKATLTVDTSSRTAYMQLSSLTSADSAVYYCAPYDSDYAMDYWGQGTSVTVSS
VL: DIKMTQSPSSMYASLGERVTITCKASQDINNYLSWFQQKPGKSPKTLIYRANRLVDGVPSRVSGSGSGQDYSLTISSLEYEDVGIYFCLQYDEFPLTFGAGTKLELKR
EC50 [3]: 0.1 µg/mL | EC50 [4]: 0.25 µg/mL | EC50 [5]: 0.2 µg/mL | EC50 [6]: 1 µg/mL

B6: MWTx-002 anti-TMPRSS6 antibody (antibody, V domains shown)
VH: EVQLQQSGAELVKPGASVKLSCTASGFNIKDYYIHWVKERTEQGLEWFGRIDPEDGESEYAPKFQGKATLTADTSSNTAYLQLSSLTSEDTAVYYCTRGDSMMVTYFDYWGQGTTLTVSS
VL: DIVMTQSHKFMSTSVGDRVSITCKASQDVSTAVAWYQQKPGQSPKLLIYWAFTRHTGVPDRFTSTGSGTDYALTISSVQAEDLALYYCQQHYRSPWTFGGGTKLEIKR
EC50 [3]: 0.06 µg/mL | EC50 [5]: 0.04 µg/mL | EC50 [6]: 0.2 µg/mL

Now from value to binder:

EC50 [1]: 0.06 µg/mL
B2: hzMWTx-002Var anti-TMPRSS6 antibody (antibody, V domains shown)
VH: EVQLVQSGAEVKKPGASVKVSCKASGFNIKDYYIHWVRQATGQGLEWMGRIDPEDAESEYAPKFQGRVTITADTSTDTAYMELSSLRSEDTAVYYCTRGDSMMVTYFDYWGQGTLVTVSS
VL: DIQMTQSPSSLSASVGDRVTITCKASQDVSTAVAWYQQKPGKAPKLLIYWAFTRHTGVPSRFSGSGSGTDYALTISSLQPEDFATYYCQQHYRSPWTFGGGTKVEIKR

EC50 [1]: 0.03 µg/mL | EC50 [2]: 0.31 µg/mL
B5: hzMWTx-003Var anti-TMPRSS6 antibody (antibody, V domains shown)
VH: QVQLVQSGAEVKKPGASVKVSCKASGFNIEDYYMHWVRQAPGQRLEWMGRIDPEDAETTYSPKFQGRVTIIPDTSANTAYMELSSLRSEDTAVYYCARSIYLDPMDYWGQGTLVTVSS
VL: DIQMTQSPKSLSASVGDRVTITCRASQDVTTALAWYQQKPGQSPKLLIYWATTRHSGVPSRFSGSGSGTDFTLTISSLQPEDFATYYCQQHYSTPYTFGQGTKLEIKR
